Results: publication PMC5485859

What was measured:
Details in all cases: reference: WT HSP90α, after IR; sites T5,T7
[1] = molecular target: endothelial nitric oxide synthase (eNOS) (UniProt P70313); test: co-immunoprecipitation
[2] = molecular target: androgen receptor (AR) (UniProt P19091); test: co-immunoprecipitation
[3] = molecular target: glucocorticoid receptor (GR) (UniProt P06537); test: anti-GR IP, anti-Flag blot
[4] = molecular target: liver kinase B1 (LKB1) (UniProt Q9WTK7); test: anti-LKB1 IP, anti-Flag blot

Measured: binding against the reference

HSP90α (from UniProt P07901) T5,7A HSP90α, after IR
stronger: all assays above
